Reference: patent US7285703B2, “Plant like starches and the method of making them in hosts” (BASF Plant Science GmbH, priority 1998, dated 2007)

What was measured:
[1] = substrate: Nc1ncnc2c1ncn2[C@@H]1O[C@H](COP(=O)(O)OP(=O)(O)O[C@H]2O[C@H](CO)[C@@H](O)[C@H](O)[C@H]2O)[C@@H](O)[C@H]1O; test: ADPGlc kinetics of starch synthase SSI-3; format: biochemical, maize; conditions: other: −citrate, 5 mg/ml amylopectin as primer, 37° C.
Description: (§1) FIG. 58. SSI-1, SSI-2, and SSI-3 construct design. Three forms of SSI were constructed in the pET expression (see Methods). pExs10a encodes SSI-1, the full length maize SSI (583 amino acids) which has the N-terminal sequence CVAELSREGP (SEQ ID NO:64). pExs8 encodes a truncated SSI, SSI-2, with amino acids # 8-52 deleted from the N-terminus of SSI-1 and which has the N-terminal sequence CVAELSR/DLG (SEQ ID NO:65). pExs1d encodes the most truncated form of SSI, SSI-3, with the first 93 amino acids deleted from SSI-1 and which has the N-terminal sequence SIVFVTGE (SEQ ID NO:66). A depiction of the waxygene, encoding GBSS, which has the N-terminal sequence ASAGMNW (SEQ ID NO:67), is also included for comparison. The amino acid motif KS/TGGL (SEQ ID NO:9), the putative binding site for ADGPGlc, in indicated by the triangles. The KS/TGGL (SEQ ID NO:9) motif is located 18 amino acids from the N-terminus in GBSS, while the motif is 106 amino acids from the N-terminus in maize SSI. Drawing not to scale.
(§2) 5 mL of supernatant were used to assay STS and SBE activities as previously described (Preiss) with minor modification. […] The unincorporated [^14C]-ADPGlc was separated with Dowex anion exchange column (200-400 mesh, Sigma Chemical Co.). […] SBE activity was determined by phosphorylase stimulation assay. One unit of activity is defined as 1 mmol Glc incorporated into the a-glucan per min at. […]

[2] = substrate: Nc1ncnc2c1ncn2[C@@H]1O[C@H](COP(=O)(O)OP(=O)(O)O[C@H]2O[C@H](CO)[C@@H](O)[C@H](O)[C@H]2O)[C@@H](O)[C@H]1O; test: purified protein, by the assay type; conditions: other: −citrate, 5 mg/ml amylopectin as primer, 37° C.
Description: (SEQ ID NO:64). pExs8 encodes a truncated SSI, SSI-2, with amino acids # 8-52 deleted from the N-terminus of SSI-1 and which has the N-terminal sequence CVAELSR/DLG (SEQ ID NO:65). pExs1d encodes the most truncated form of SSI, SSI-3, with the first 93 amino acids deleted from SSI-1 and which has the N-terminal sequence [sequence]
5 mL of supernatant were used to assay STS and SBE activities as previously described (Preiss) with minor modification. The reaction mixture for STS contained 100 mM Bicine buffer, 10 mg/mL glycogen, 0.5 mg/mL BSA, 0.5 M sodium citrate, 25 mM potassium acetate, 10 mM GSH, 3 mM [^14C]-ADPGlc (500 dpm/nmol) and enzyme in a final volume of 0.1 mL. The reaction was carried out at 25° C. for 15 min and terminated by boiling for 2 min. The unincorporated [^14C]-ADPGlc was separated with Dowex anion exchange column (200-400 mesh, Sigma Chemical Co.). One unit of activity is defined as 1 nmol Glc incorporated into the a-glucan per min at 25° C.
For the recombinant SS purification, the cell pellet was resuspended in sonication buffer (50 mM Tris-acetate, pH 7.5, 10 mM EDTA, and 5 mMDTT; 7 ml buffer per gram of cell mass), and cells were lysed using a Fisher 550 Sonic Dismembrator with 5×1 min. bursts with 30 sec. intervals. The homogenate was centrifuged at 9600 g for 30 minutes. SSI in the supernatant was then precipitated by slowly adding neutralized saturated ammonium sulfate to 40% saturation. After stirring on ice for an additional 50 minutes, proteins were collected by centrifugation at 12500 g for 45 minutes. The protein pellet was then redissolved in buffer A (50 mM Tris, pH 5.5, 1 mM EDTA, and 5 mM DTT) containing 0.1 M KCl and dialyzed against the same buffer, with one change of buffer. After dialysis, the sample was centrifuged at 13000 g for 20 minutes to remove insoluble materials. The resulting supernatant was loaded onto amylase affinity column pre-equilibrated with dialysis buffer, and the flow through was collected. […]

[3] = substrate: Nc1ncnc2c1ncn2[C@@H]1O[C@H](COP(=O)(O)OP(=O)(O)O[C@H]2O[C@H](CO)[C@@H](O)[C@H](O)[C@H]2O)[C@@H](O)[C@H]1O; test: ADPGlc kinetics of starch synthase SSI-1; format: biochemical, maize; conditions: other: −citrate, 5 mg/ml amylopectin as primer, 37° C.
Description: as §1, §2

[4] = substrate: Nc1ncnc2c1ncn2[C@@H]1O[C@H](COP(=O)(O)OP(=O)(O)O[C@H]2O[C@H](CO)[C@@H](O)[C@H](O)[C@H]2O)[C@@H](O)[C@H]1O; test: ADPGlc kinetics of starch synthase SSIIa-1; format: biochemical, maize; conditions: other: amylopectin as primer, −citrate, 27° C.
Description: FIG. 59. SSIIa-1 and SSIIa-2 construct diagram. Two forms of SSIIa were constructed in the pET expression system. pExs3c encodes SSIIa-1, the putative full length maize SSIIa which has the N-terminal sequence AEAEAGGK (SEQ ID NO:68). […] A depiction of the waxy gene, encoding GBSS which has the N-terminal sequence ASAGMNVV (SEQ ID NO:67), is also included for comparison. The amino acid motif KTGGL (SEQ ID NO:10), the putative binding site for ADPGlc, is indicated by the triangles. The KTGGL (SEQ ID NO:10) motif is located 18 amino acids from the N-terminus in GBSS, while the motif is 194 amino acids from the N-terminus in maize SSIIa.
5 mL of supernatant were used to assay STS and SBE activities as previously described (Preiss) with minor modification. […] […] The unincorporated [^14C]-ADPGlc was separated with Dowex anion exchange column (200-400 mesh, Sigma Chemical Co.). One unit of activity is defined as 1 nmol Glc incorporated into the a-glucan per min at 25° C. SBE activity was determined by phosphorylase stimulation assay. One unit of activity is defined as 1 mmol Glc incorporated into the a-glucan per min at. 30° C. […]

maize starch synthases = test: Expression of maize starch synthases in Escherichia coli BL21 (DE3): specific activity; format: biochemical; conditions: 25° C., 5 mg/mL glycogen as primer

B1: maize starch synthase SSI-3 (STSI-3), N-terminally truncated SSI, first 93 amino acids of SSI-1 deleted, N-terminus SIVFVTGE (SEQ ID NO:66) (Zea mays) (protein)
chain: SIVFVTGEASPYAKSGGLGDVCGSLPVALAARGHRVMVVMPRYLNGTSDKNYANAFYTEKHIRIPCFGGEHEVTFFHEYRDSVDWVFVDHPSYHRPGNLYGDKFGAFGDNQFRYTLLCYAACEAPLILELGGYIYGQNCMFVVNDWHASLVPVLLAAKYRPYGVYKDSRSILVIHNLAHQGVEPASTYPDLGLPPEWYGALEWVFPEWARRHALDKGEAVNFLKGAVVTADRIVTVSKGYSWEVTTAEGGQGLNELLSSRKSVLNGIVNGIDINDWNPATDKCIPCHYSVDDLSGKAKCKGALQKELGLPIRPDVPLIGFIGRLDYQKGIDLIQLIIPDLMREDVQFVMLGSGDPELEDWMRSTESIFKDKFRGWVGFSVPVSHRITAGCDILLMPSRFEPCGLNQLYAMQYGTVPVVHATGGLRDTVENFNPFGENGEQGTGWAFAPLTTENMFVDIANCNIYIQGTQVLLGRANEARHVKRLHVGPCR
**Q.** B1 was tested. Which Km [1] did it give?
**A.** 620 ± 40 µM

B2: maize starch synthase SSI-2 (STSI-2), N-terminally truncated SSI, amino acids 8-52 of SSI-1 deleted, N-terminus CVAELSR/DLG (SEQ ID NO:65) (Zea mays; DEL47-91) (protein)
chain: CVAELSRDLGLEPEGIAEGSIDNTVVVASEQDSEIVVGKEQARAKVTQSIVFVTGEASPYAKSGGLGDVCGSLPVALAARGHRVMVVMPRYLNGTSDKNYANAFYTEKHIRIPCFGGEHEVTFFHEYRDSVDWVFVDHPSYHRPGNLYGDKFGAFGDNQFRYTLLCYAACEAPLILELGGYIYGQNCMFVVNDWHASLVPVLLAAKYRPYGVYKDSRSILVIHNLAHQGVEPASTYPDLGLPPEWYGALEWVFPEWARRHALDKGEAVNFLKGAVVTADRIVTVSKGYSWEVTTAEGGQGLNELLSSRKSVLNGIVNGIDINDWNPATDKCIPCHYSVDDLSGKAKCKGALQKELGLPIRPDVPLIGFIGRLDYQKGIDLIQLIIPDLMREDVQFVMLGSGDPELEDWMRSTESIFKDKFRGWVGFSVPVSHRITAGCDILLMPSRFEPCGLNQLYAMQYGTVPVVHATGGLRDTVENFNPFGENGEQGTGWAFAPLTTENMFVDIANCNIYIQGTQVLLGRANEARHVKRLHVGPCR
**Q.** B2 was tested. Which Km [2] did it give?
**A.** 250 ± 40 µM

B3: maize starch synthase SSI-1 (STSI-1), full length SSI (583 amino acids), N-terminus CVAELSREGP (SEQ ID NO:64) (Zea mays) (protein)
chain: CVAELSREGPAPRPLPPALLAPPLVPGFLAPPAEPTGEPASTPPPVPDAGLGDLGLEPEGIAEGSIDNTVVVASEQDSEIVVGKEQARAKVTQSIVFVTGEASPYAKSGGLGDVCGSLPVALAARGHRVMVVMPRYLNGTSDKNYANAFYTEKHIRIPCFGGEHEVTFFHEYRDSVDWVFVDHPSYHRPGNLYGDKFGAFGDNQFRYTLLCYAACEAPLILELGGYIYGQNCMFVVNDWHASLVPVLLAAKYRPYGVYKDSRSILVIHNLAHQGVEPASTYPDLGLPPEWYGALEWVFPEWARRHALDKGEAVNFLKGAVVTADRIVTVSKGYSWEVTTAEGGQGLNELLSSRKSVLNGIVNGIDINDWNPATDKCIPCHYSVDDLSGKAKCKGALQKELGLPIRPDVPLIGFIGRLDYQKGIDLIQLIIPDLMREDVQFVMLGSGDPELEDWMRSTESIFKDKFRGWVGFSVPVSHRITAGCDILLMPSRFEPCGLNQLYAMQYGTVPVVHATGGLRDTVENFNPFGENGEQGTGWAFAPLTTENMFVDIANCNIYIQGTQVLLGRANEARHVKRLHVGPCR
**Q.** Which Km [3] does the source give for B3 here?
**A.** 240 ± 20 µM

B4: maize starch synthase SSIIa-1, putative full length SSIIa (669 amino acids), N-terminus AEAEAGGK (SEQ ID NO:68) (Zea mays) (protein)
chain: AEAEAGGKDAPPERSGDAARLPRARRNAVSKRRDPLQPVGRYGSATGNTARTGAASCQNAALADVEIVEIKSIVAAPPTSIVKFPGRGLQDDPSLWDIAPETVLPAPKPLHESPAVDGDSNGIAPPTVEPLVQEATWDFKKYIGFDEPDEAKDDSRVGADDAGSFEHYGTMILGLCGENVMNVIVVAAECSPWCKTGGLGDVVGALPKALARRGHRVMVVVPRYGDYVEAFDMGIRKYYKAAGQDLEVNYFHAFIDGVDFVFIDASFRHRQDDIYGGSRQEIMKRMILFCKVAVEVPWHVPCGGVCYGDGNLVFIAMNWHTALLPVYLKAYYRDHGLMQYTRSVLVIHNIGHQGRGPVHEFPYMDLLNTNLQHFELYDPVGGEHANIFAACVLKMADRVVTVSRGYLWELKTVEGGWGLHDIIRSNDWKINGIRERIDHQEWNPKVDVHLRSDGYTNYSLETLDAGKRQCKAALQRDVGLEVRDDVPLLGFIGRLDGQKGVDIIGDAMPWIAGQDVQLVMLGTGPPDLERMLQHLEREHPNKVRGWVGFSVLMVHRITPGASVLVMPSRFAGGLNQLYAMAYGTVPVVHAVGGLRDTVAPFDPFGDAGLGWTFDRAEANKLIEVLSHCLDTYRNYEESWKSLQARGMSQNLSWDHAAELYEDVLVKYQW
**Q.** B4 was tested. Which Km [4] did it give?
**A.** 460 ± 60 µM

B5: pEXS-wx: maize GBSS (waxy), N-terminus ASAGMNVVFV, expressed from this plasmid in E. coli BL21 (DE3) (protein, UniProt P04713 73-605, looked up)
Granule-bound starch synthase …: ASAGMNVVFVGAEMAPWSKTGGLGDVLGGLPPAMAANGHRVMVVSPRYDQYKDAWDTSVVSEIKMGDGYETVRFFHCYKRGVDRVFVDHPLFLERVWGKTEEKIYGPVAGTDYRDNQLRFSLLCQAALEAPRILSLNNNPYFSGPYGEDVVFVCNDWHTGPLSCYLKSNYQSHGIYRDAKTAFCIHNISYQGRFAFSDYPELNLPERFKSSFDFIDGYEKPVEGRKINWMKAGILEADRVLTVSPYYAEELISGIARGCELDNIMRLTGITGIVNGMDVSEWDPSRDKYIAVKYDVSTAVEAKALNKEALQAEVGLPVDRNIPLVAFIGRLEEQKGPDVMAAAIPQLMEMVEDVQIVLLGTGKKKFERMLMSAEEKFPGKVRAVVKFNAALAHHIMAGADVLAVTSRFEPCGLIQLQGMRYGTPCACASTGGLVDTIIEGKTGFHMGRLSVDCNVVEPADVKKVATTLQRAIKVVGTPAYEEMVRNCMIQDLSWKGPAKNWENVLLSLGVAGGEPGVEGEEIAPLAKENVAAP
modifications: expressed in E. coli
**Q.** With B5 as the molecule, how does the “Specific Activities” value (maize starch synthases) read?
**A.** 0.033 units/mg Protein
